Results taken from patent publication US6551840B2, “Method of screening TGF-β-inhibiting substances” (Chugai Seiyaku Kabushiki Kaisha, priority 1997, dated 2003).

Tests used:
[1] = target: T1, binding between TAK1 and TAB1 (Homo sapiens, UniProt O43318); assay: Immunoprecipitation and Western analysis binding-inhibition study using synthetic peptides; set-up: dose or concentration left out as unconfirmed; conditions: COS-7 cell extracts with TAK1-6×His or FLAG-TAB1; compared to no peptide
T1 construct: amino acid Met at amino acid position 1 to amino acid Ser at amino acid position 579; made in house; host or cells: COS-7 cells transfected with pCOS-TAK1 or pCOS-FTAB1; unpurified cell extracts
T1 sequence (O43318 1-579 isoform O43318-2): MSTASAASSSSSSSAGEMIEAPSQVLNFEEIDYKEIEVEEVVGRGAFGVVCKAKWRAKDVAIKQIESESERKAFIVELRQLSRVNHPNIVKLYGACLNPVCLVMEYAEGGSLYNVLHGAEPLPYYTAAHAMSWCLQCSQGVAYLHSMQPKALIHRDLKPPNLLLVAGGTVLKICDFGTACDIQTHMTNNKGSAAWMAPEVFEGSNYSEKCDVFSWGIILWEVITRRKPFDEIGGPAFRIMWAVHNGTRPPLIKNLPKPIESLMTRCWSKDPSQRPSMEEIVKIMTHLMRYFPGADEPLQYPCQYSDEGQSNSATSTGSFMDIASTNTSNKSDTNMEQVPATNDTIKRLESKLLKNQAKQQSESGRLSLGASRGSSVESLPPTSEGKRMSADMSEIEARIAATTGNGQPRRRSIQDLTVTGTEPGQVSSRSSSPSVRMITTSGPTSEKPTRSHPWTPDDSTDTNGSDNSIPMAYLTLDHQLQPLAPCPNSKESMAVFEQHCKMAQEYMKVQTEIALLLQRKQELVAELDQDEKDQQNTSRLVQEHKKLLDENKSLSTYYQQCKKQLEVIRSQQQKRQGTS
Source text: The fact that a synthetic peptide containing the amino acid sequence identified as the TAK1 binding region can inhibit binding between TAK1 and TAB1 was confirmed by the following experiment. Thus, a peptide TAB1C-1 (SEQ ID NO: 40) comprising 16 amino acid residues containing the TAK1 binding region of TAB1 described in the above Example and a control peptide TAB1C-2 (SEQ ID NO: 41) containing an amino acid sequence from Gln at position 437 to Gln at position 451 of TAB1 were each synthesized, and were evaluated for their effects on the binding between TAK1 and TAB1. The TAK1 and TAB1 used in the present invention were prepared in the following manner. […]
Subsequently, cell extracts each containing TAK1-6×His or FLAG-TAB1 and a 5 mM synthetic peptide were mixed to a final concentration of […], respectively, and then incubated overnight at 4° C. It was then immunoprecipitated using anti-TAK1 antibody, and the amount of bound TAK1 and TAB1 was evaluated by determining the amount of TAB1 that coprecipitated by Western analysis. […] After it was blocked using a TBS solution containing 5% BSA, TAK1 in the immunoprecipitate was detected using anti-TAK1 antibody (manufactured by SantaCruz) and the coprecipitataed FLAG-TAB1 was detected using anti-FLAG M2 antibody (manufactured by Kodak). […]

[2] = target: T2, human TAK1-6×His polypeptide (Homo sapiens, UniProt O43318); assay: ELISA in vitro binding-evaluation system: MBP-TAB1C-FLAG on immobilized TAK1-6×His; conditions: 100 ng TAK1-6×His per well; no increase where TAK1-6×His was not immobilized
T2 construct: amino acid Met at amino acid position 1 to amino acid Ser at amino acid position 579; made in house; host or cells: Sf9 insect cells, recombinant baculovirus
T2 sequence (O43318 1-579 isoform O43318-2): T1 sequence (O43318 1-579 isoform O43318-2)
Source text: Using the purified product obtained as above an ELISA system was constructed to detect in vitro an interaction between the recombinant human TAB1 polypeptide or the recombinant MBP-TAB1C-FLAG polypeptide and the recombinant human-TAK1 polypeptide. In the ELISA system it is intended to contact the recombinant human TAB1-FLAG polypeptide or the human MBP-TAB1C-FLAG polypeptide to a 96-well immunoplate to which the human TAK1-6×His polypeptide had been previously immobilized and thereby to detect the recombinant human TAB1-FLAG polypeptide or the recombinant MBP-TAB1C-FLAG polypeptide using a primary and secondary antibody.
(1) The purified product of human TAK1-6×His polypeptide was diluted in the immobilization buffer (0.1 M NaHCO3, 0.02% NaN3, pH 9.6). To each well of a 96-well immunoplate (manufactured by Nunc) was added 100 μl each of the diluted aqueous solution (equivalent to 100 ng of the human TAK1-6×His polypeptide), and the plate was incubated overnight at 4° C. […]
After each well was washed five times with the wash buffer, 100 μl of the color development solution (the substrate buffer; p-nitrophenyl phosphate dissolved to 1 mg/ml in 50 mM NaHCO3, 10 mM MgCl21 pH 9.8, manufactured by Sigma) was added to each well and was incubated at room temperature, and then absorbance at 405 nm was determined using a microplate reader (Model 3550, manufactured by BIO-RAD).

[3] = target: T3, binding between the recombinant MBP-TAB1C-FLAG polypeptide and the recombinant TAK1 polypeptide (Homo sapiens, UniProt O43318); assay: ELISA binding-inhibition study with TAB1-FLAG as inhibiting substance; conditions: serially diluted TAB1-FLAG added together with MBP-TAB1C-FLAG
T3 construct: amino acid Met at amino acid position 1 to amino acid Ser at amino acid position 579; made in house; host or cells: TAK1-6xHis: Sf9/baculovirus; MBP-TAB1C-FLAG: E. coli periplasm (pMAL-p2)
T3 sequence (O43318 1-579 isoform O43318-2): T1 sequence (O43318 1-579 isoform O43318-2)
Protocol: It was investigated whether the recombinant human TAB1-FLAG polypeptide used as an inhibiting substance inhibits binding between the recombinant MBP-TAB1C-FLAG polypeptide and the recombinant TAK1 polypeptide.
In a similar manner to that in the above 5-1 (2), the recombinant human TAK1-6×His polypeptide was immobilized and was blocked. Then the recombinant human TAB1-FLAG polypeptide that was serially diluted in the dilution buffer was added as a binding-inhibiting substance to each well together with 16.5 μl each of the recombinant MBP-TAB1C-FLAG polypeptide and incubated.

## TAB1C-1: peptide comprising 16 amino acid residues containing the TAK1 binding region of TAB1 (SEQ ID NO: 40) (CVEPYVDFAEFYRGRK; OTHER INFORMATION: Description of Artificial Sequence: Synthetic peptide)
[1]
  effect on binding between TAK1 and TAB1: amount of coprecipitated FLAG-TAB1: a decrease in the amount of coprecipitated FLAG-TAB1 was observed

## TAB1C-2: control peptide containing an amino acid sequence from Gln at position 437 to Gln at position 451 of TAB1 (SEQ ID NO: 41) (CQSPTLTLQSTNTHTQ; OTHER INFORMATION: Description of Artificial Sequence: Synthetic peptide)
[1]
  effect on binding between TAK1 and TAB1: amount of coprecipitated FLAG-TAB1: no decrease in binding between TAK1 and TAB1 was observed

B1: MBP-TAB1C-FLAG: fusion polypeptide of 81 amino acids at the carboxy terminal of human TAB1 and maltose-binding protein, with FLAG tag (protein)
chain: ASTLDEATPTLTNQSPTLTLQSTNTHTQSSSSSSDGGLFRSRPAHSLPPGEDGRVEPYVDFAEFYRLWSVDHGEQSVVTAPDYKDDDDK
modifications: left off: large carriers
[2]
  binding to immobilized human TAK1-6×His polypeptide, absorbance at 405 nm: absorbance increased depending on the concentration

B2: TAB1-FLAG: full-length human TAB1 with a FLAG tag added to the carboxy terminal (SEQ ID NO: 11) (protein)
chain: MAAQRRSLLQSEQQPSWTDDLPLCHLSGVGSASNRSYSADGKGTESHPPEDSWLKFRSENNCFLYGVFNGYDGNRVTNFVAQRLSAELLLGQLNAEHAEADVRRVLLQAFDVVERSFLESIDDALAEKASLQSQLPEGVPQHQLPPQYQKILERLKTLEREISGGAMAVVAVLLNNKLYVANVGTNRALLCKSTVDGLQVTQLNVDHTTENEDELFRLSQLGLDAGKIKQVGIICGQESTRRIGDYKVKYGYTDIDLLSAAKSKPIIAEPEIHGAQPLDGVTGFLVLMSEGLYKALEAAHGPGQANQEIAAMIDTEFAKQTSLDAVAQAVVDRVKRIHSDTFASGGERARFCPRHEDMTLLVRNFGYPLGEMSQPTPSPAPAAGGRVYPVSVPYSSAQSTSKTSVTLSLVMPSQGQMVNGAHSASTLDEATPTLTNQSPTLTLQSTNTHTQSSSSSSDGGLFRSRPAHSLPPGEDGRVEPYVDFAEFYRLWSVDHGEQSVVTAPGTGGSDYKDDDDK
modifications: C-terminal FLAG tag
[3]
  inhibition of binding between MBP-TAB1C-FLAG and TAK1-6×His, absorbance: decrease in absorbance dependent on the concentration
